# Test results from patent publication US20020051974.
# Like-named read-outs stand apart in the source and are kept apart here.
# What was measured:
# [1] = system: T1, VEGF (vascular endothelial growth factor), P15692-4; experiment: filter; details: 50% of RNA bound, PBS
# T1 sequence: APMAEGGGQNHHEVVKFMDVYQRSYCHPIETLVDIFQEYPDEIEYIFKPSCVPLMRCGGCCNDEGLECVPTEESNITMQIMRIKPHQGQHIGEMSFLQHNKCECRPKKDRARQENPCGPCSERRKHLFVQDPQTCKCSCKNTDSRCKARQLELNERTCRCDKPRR
# [2] = system: T1, VEGF (vascular endothelial growth factor), P15692-4; details: CITED Jellinek et al 1994, cited from earlier work
Sequence,"EC50 ([1]; 1 mM MgCl2, room temperature)",also measured
GGGAAUGGAUCCACAUCUACGAAUUCAGGUGGAAAGCAAGUUCCGCGCACGUUAAUUUCACUGCAGACUUGACGAAGCUU [V08],14.4 nM,–
GGGAAUGGAUCCACAUCUACGAAUUCGGGAACAGCUCUAUUCCGCGCACGUUUGAGUUCACUGCAGACUUGACGAAGCUU [V04],4.52 nM,–
GGGAAUGGAUCCACAUCUACGAAUUCAGGCAGCGUAGAGGGUUCACUCUGCCGAGUUUCACUGCAGACUUGACGAAGCUU [V01],19 nM,–
GGGAAUGGAUCCACAUCUACGAAUUCCGCGCACGUAGGUUGGGUGUAACUGCGUUGUUCACUGCAGACUUGACGAAGCUU [V06],–,"EC50 ([1]; 1 mM MgCl2, printed sequence identical to V05): 36.9 nM"
GGGAAUGGAUCCACAUCUACGAAUUCCGCGCGCGCUAACCUUGNGGNGNAAGUAUGUUCACUGCAGACUUGACGAAGCUU [V13],–,"EC50 ([1]; 1 mM MgCl2, sequence contains N): 8.32 nM"
GGGAAUGGAUCCACAUCUACGAAUUCGAUGGCGUUAGUGGGAAUGAUUCUGCCGAGUUCACUGCAGACUUGACGAAGCUU [V07],17.3 nM,–
GGGAGCUCAGAAUAAACGCUCAAACGGUUCUGUGUGUGGACUAGCCGCGGCCGUUCGACAUGAGGCCCGGAUCCGGC [VEGF126 (RNA transcript of printed DNA)],19.9 nM,Kd ([2]; unit not repeated for this value): 0.14 nM
GGGAAUGGAUCCACAUCUACGAAUUCCGCGCACGUAGGUUGGGUGUAACUGCGUUGUUCACUGCAGACUUGACGAAGCUU [V05],15.3 nM,–
GGGAAUGGAUCCACAUCUACGAAUUCCGCGCACGUCACGGGCCGACACGAAUAUGGUUCACUGCAGACUUGACGAAGCUU [V10],31.4 nM,–
GGGAAUGGAUCCACAUCUACGAAUUCCGUUCUGCCGAGACUGCACGUGUGCUUGAAUUCACUGCAGACUUGACGAAGCUU [V09],24.2 nM,–
GGGAAUGGAUCCACAUCUACGAAUUCGAGGGUCCGUCUGCCGAGUCUUGUAACACCUUCACUGCAGACUUGACGAAGCUU [V02],21.3 nM,–
GGGAAUGGAUCCACAUCUACGAAUUCGGAUAUUCCGCGCACGUCAUUUCAUCAGCUUUCACUGCAGACUUGACGAAGCUU [V19],7.61 nM,–
GGGAGCUCAGAAUAAACGCUCAAGACCCAUCGUCAACGGUUGAGUCUGUCCCGUUCGACAUGAGGCCCGGAUCCGGC [VEGF40 (RNA transcript of printed DNA)],4.15 nM,Kd [2]: 0.19 nM
GGGAAUGGAUCCACAUCUACGAAUUCUUUGAAGAGGGUCAAUCCGCGCACGUUACGUUCACUGCAGACUUGACGAAGCUU [V03],32.6 nM,–
GGGAAUGGAUCCACAUCUACGAAUUCUGUAAGAUUGGUCUCCAGACUGCCGAGCUGUUCACUGCAGACUUGACGAAGCUU [V18],–,"EC50 ([1]; 1 mM MgCl2, text gives 8.5): 8.52 nM"
